Experimental findings from patent US20230242662A1 are described below.

Assay [1] has as its target CD46 on Colo205 cells (human) (UniProt P15529). The experiment in a line: FACS, Colo205 cells that express CD46, pH 7.4.
In assay [2] the target is human CD46 expressed on 293 cells (human) (UniProt P15529). The experiment in a line: FACS, 293 cells expressing human CD46, pH 7.4.
In assay [3] the target is CD46 on Colo205 cells (human) (UniProt P15529). The experiment in a line: FACS, Colo205 cells that express CD46, pH 6.0. (In general: A flow cytometer gives signals particle by particle.)
Assay [4] concerns the target human CD46 expressed on 293 cells (human) (UniProt P15529). The experiment in a line: FACS, 293 cells expressing human CD46, pH 6.0.
Assay [5] shares this target. The experiment in a line: cell-based or functional assay.
Assay [6] concerns the target CD46 on Colo205 cells (human) (UniProt P15529). The experiment in a line: cell-based or functional assay.
The target of assay [7] is human CD46 expressed on 293 cells (human) (UniProt P15529). The experiment in a line: FACS, 293 cells expressing human CD46; EC50 at pH 7.4 over EC50 at pH 6.0.
Assay [8] deals with CD46 on Colo205 cells (human) (UniProt P15529). Nature of the assay: FACS, Colo205 cells that express CD46; EC50 at pH 7.4 over EC50 at pH 6.0.
Assay [9] concerns the target recombinant human CD46 antigen (human) (UniProt P15529). Nature of the assay: ELISA, coated human CD46; EC50 at pH 7.4 over EC50 at pH 6.0. For orientation: ELISA stands for enzyme-linked immunosorbent assay.
Assay [10] has the same target. The experiment in a line: pH range ELISA (pH 5.5 to 7.4), coated human CD46.

B1: Benchmark (BM) BA-133-00-01 (antibody, V domains shown)
VH: QVQLQESGPGLVKPSETLSLTCTVSGGSVSSYDISWIRQPPGKGLEWIGVIWTDGGTNYNSAFMSRVTISVDTSKNQFSLKLSSVTAADTAVYYCARVYDGYPWFAYWGQGTLVTVSS
VL: DIQMTQSPSSLSASVGDRVTITCRASQGISNYLNWYQQKPGKAPKLLIYYTSSLHSGVPSRFSGSGSGTDFTLTISSLQPEDFATYYCQQYIKLPWTFGGGTKLEIKR
As usually defined, the EC50 is the concentration giving half of the maximal effect. Take B1: the EC50 in assay [1] was found to be 0.513 µg/mL; in [2] it was 0.368 µg/mL; in assay [3], 0.201 µg/mL; in assay [4], 0.147 µg/mL. In assay [5], this molecule yielded an IC50 of in vitro cell killing of 293 cells expressing human CD46, pH 6.0 (test article ADC, CellTiter-Glo) of 15.8 ng/mL. Besides, the IC50 of in vitro cell killing of 293 cells expressing human CD46, pH 7.4 (test article ADC, CellTiter-Glo) in assay [5] was found to be 23.6 ng/mL. The Ratio (pH 7.4/6.0) of the killing IC50 on 293 cells expressing human CD46 in assay [5] was 1.5. In [6], the IC50 of inhibition (cytotoxicity) of Colo205 cells that express CD46, pH 6.0 (test article ADC, CellTiter-Glo) turned out to be 4.91 ng/mL. In assay [6], this molecule registered an IC50 of inhibition (cytotoxicity) of Colo205 cells that express CD46, pH 7.4 (test article ADC, CellTiter-Glo) of 11.6 ng/mL. For the same molecule, the Ratio (pH 7.4/6.0) of the cytotoxicity IC50 on Colo205 cells in [6] came out at 2.37. Also, the values for the Ratio (pH 7.4/6.0) in assay [7] and in [8] were 2.5 and 2.6, respectively. Further, the ratio (ph 7.4/pH 6.0) in assay [9] was 1.31.

B2: BA-133-04-04 (antibody, V domains shown)
VH: EVQLVESGGGLVQPGGSLRLSCAASGGSVSSYDISWIRQSPSRGLEWLGVIWTDGGTNYNSAFMSRFTISRDDSKNTAYLQMNSLKTEDTAVYYCERVYDGYPWFAYWGQGTLVTVSS
VL: AIQLTQSPSSLSASVGDRVTITCRASQGISNYLNWYLQKPGQSPQLLIYYTSSLHEGVPDRFSGSGSGTDFTLKISRVEAEDVGVYYCQQYIKLPWTFGQGTKVEIK
On to B2, for which the 50% effective concentration (EC50) in [1] came to 0.96 µg/mL. In assay [2], this molecule registered a half-maximal effective concentration (EC50) of 0.647 µg/mL. The EC50 in assay [3] turned out to be 0.246 µg/mL. In assay [4], this molecule showed an EC50 of 0.241 µg/mL. Besides, in [5], the IC50 of in vitro cell killing of 293 cells expressing human CD46, pH 6.0 (test article ADC, CellTiter-Glo) worked out at 13.7 ng/mL; the IC50 of in vitro cell killing of 293 cells expressing human CD46, pH 7.4 (test article ADC, CellTiter-Glo) stood at 39.9 ng/mL; the Ratio (pH 7.4/6.0) of the killing IC50 on 293 cells expressing human CD46 turned out to be 2.91. For the same molecule, in assay [6], the IC50 of inhibition (cytotoxicity) of Colo205 cells that express CD46, pH 6.0 (test article ADC, CellTiter-Glo) worked out at 6.58 ng/mL; the IC50 of inhibition (cytotoxicity) of Colo205 cells that express CD46, pH 7.4 (test article ADC, CellTiter-Glo) came to 56 ng/mL; the Ratio (pH 7.4/6.0) of the cytotoxicity IC50 on Colo205 cells was 8.51. Besides, the pH inflection point in [10] amounted to 6.7 pH. For the same molecule, the Ratio (pH 7.4/6.0) in assay [7] came out at 2.7. Besides, the Ratio (pH 7.4/6.0) in [8] worked out at 3.9. In assay [9], the ratio (ph 7.4/pH 6.0) stood at 3.63.

B3: BA-133-04-01 (antibody, V domains shown)
VH: EVQLVESGGGLVQPGGSLRLSCAASGGSVSSYDISWIRQSPSRGLEWLGVIWTDGGTNYNSAFMSRFTISRDDSKNTAYLQMNSLKTEDTAVYYCERVYDGYPWFAYWGQGTLVTVSS
VL: AIQLTQSPSSLSASVGDRVTITCRASQWISNYLNWYLQKPGQSPQLLIYYTSSLHSGVPDRFSGSGSGTDFTLKISRVEAEDVGVYYCQQYIKLPWTFGQGTKVEIK
For B3, the half-maximal effective concentration (EC50) in assay [1] was 1.66 µg/mL; in assay [2], 1.34 µg/mL; in assay [3] it was 0.36 µg/mL; in [4], 0.324 µg/mL. Also, the pH inflection point in assay [10] worked out at 6.61 pH. The Ratio (pH 7.4/6.0) in [7] stood at 4.1; in assay [8], 4.6. The ratio (ph 7.4/pH 6.0) in assay [9] worked out at 3.46.

B4: BA-133-04-02 (antibody, V domains shown)
VH: EVQLVESGGGLVQPGGSLRLSCAASGGSVSSYDISWIRQSPSRGLEWLGVIWTDGGTNYNSAFMSRFTISRDDSKNTAYLQMNSLKTEDTAVYYCERVYDGYPWFAYWGQGTLVTVSS
VL: AIQLTQSPSSLSASVGDRVTITCRASQGIANYLNWYLQKPGQSPQLLIYYTSSLHSGVPDRFSGSGSGTDFTLKISRVEAEDVGVYYCQQYIKLPWTFGQGTKVEIK
On to B4, for which the EC50 in assay [1] amounted to 1.57 µg/mL; in assay [2], 1.09 µg/mL; in assay [3], 0.371 µg/mL; in assay [4], 0.32 µg/mL. The pH inflection point in assay [10] was determined as 6.64 pH. Further, the values for the Ratio (pH 7.4/6.0) in assay [7] and in assay [8] were 3.4 and 4.2, respectively. Further, in assay [9], the ratio (ph 7.4/pH 6.0) is 3.8.

B5: BAP133-2-02-12 (antibody, V domains shown)
VH: EVQLVESGGGLVQPGGSLRLSCAASGGSVSSYDISWIRQSPSRGLEWLGVIWTDGGTNYNSAFMSRFTISRDDSKNTAYLQMNSLKTEDTAVYYCERVYDGYPWFAYWGQGTLVTVSS
VL: AIQLTQSPSSLSASVGDRVTITCRALQGISNYLNWYQQKPGKAPKLLIYYTSSLHSGVPSRFSGSGSGTEFTLTISSLQPDDFATYYCQQYIKLPWTFGQGTKVEIK
With B5, the concentration giving a half-maximal response (EC50) worked out at 3.63 µg/mL in assay [1], 2.23 µg/mL in [2], 0.704 µg/mL in assay [3] and 0.676 µg/mL in assay [4]. In addition, the pH inflection point in [10] came out at 6.58 pH. For the same molecule, the Ratio (pH 7.4/6.0) came out at 3.3 in assay [7] and 5.2 in [8]. Further, the ratio (ph 7.4/pH 6.0) in assay [9] is 7.02.

B6: BAP133-2-03-03-SL (antibody, V domains shown)
VH: EVQLVESGGGLVQPGGSLRLSCAASGGSVSSYDISWIRQSPSRGLEWLGVIWTDGGTNYNSAFMSRFTISRDDSKNTAYLQMNSLKTEDTAVYYCERVYDGYPWFAYWGQGTLVTVSS
VL: AIQLTQSPSSLSASVGDRVTITCRASQGISNYLNWYLQKPGQSPQLLIYYTSSLHSGVPDRFSGSGSGTDFTLKISRVEAEDVGVYYCQQYIKLPWTFGQGTKVEIK
The molecule B6 returned an EC50 in [1] of 1.48 µg/mL. The EC50 in [2] was 0.748 µg/mL. The concentration for a half-maximal effect (EC50) in [3] came to 0.341 µg/mL. Besides, the half-maximal effective concentration (EC50) in [4] is 0.336 µg/mL. Further, in assay [5], the IC50 of in vitro cell killing of 293 cells expressing human CD46, pH 6.0 (test article ADC, CellTiter-Glo) is 20.6 ng/mL; the IC50 of in vitro cell killing of 293 cells expressing human CD46, pH 7.4 (test article ADC, CellTiter-Glo) was found to be 90.4 ng/mL; the Ratio (pH 7.4/6.0) of the killing IC50 on 293 cells expressing human CD46 is 4.38. Also, in assay [6], the IC50 of inhibition (cytotoxicity) of Colo205 cells that express CD46, pH 6.0 (test article ADC, CellTiter-Glo) was found to be 33.3 ng/mL; the IC50 of inhibition (cytotoxicity) of Colo205 cells that express CD46, pH 7.4 (test article ADC, CellTiter-Glo) came to 253 ng/mL; the Ratio (pH 7.4/6.0) of the cytotoxicity IC50 on Colo205 cells was 7.6. Moreover, in assay [10], the pH inflection point is 6.8 pH. Also, in assay [7], the Ratio (pH 7.4/6.0) came out at 2.2. The Ratio (pH 7.4/6.0) in assay [8] turned out to be 4.4. The ratio (ph 7.4/pH 6.0) in [9] is 3.23.

B7: BA-133-04-03 (antibody, V domains shown)
VH: EVQLVESGGGLVQPGGSLRLSCAASGGSVSSYDISWIRQSPSRGLEWLGVIWTDGGTNYNSAFMSRFTISRDDSKNTAYLQMNSLKTEDTAVYYCERVYDGYPWFAYWGQGTLVTVSS
VL: AIQLTQSPSSLSASVGDRVTITCRASQGISNYLNWYLQKPGQSPQLLIYYTSSLFSGVPDRFSGSGSGTDFTLKISRVEAEDVGVYYCQQYIKLPWTFGQGTKVEIK
For the molecule B7, the concentration for a half-maximal effect (EC50) is 1.47 µg/mL in assay [1], 0.427 µg/mL in assay [2], 0.151 µg/mL in assay [3] and 0.147 µg/mL in [4]. Further, the Ratio (pH 7.4/6.0) in assay [7] came out at 2.9; in [8], 9.7. In addition, the ratio (ph 7.4/pH 6.0) in assay [9] amounted to 2.23.
